Experimental data published in PMC4476693, “Role of Subunit Exchange and Electrostatic Interactions on the Chaperone Activity of Mycobacterium leprae HSP18” (PLoS ONE, 2015).

Experiments:
[1] = biological target: the molecule itself; assay: SEC; analytical gel filtration (TSK-GEL G4000SWXL, HPLC), 25°C, 0.5 mg/ml protein in 50 mM phosphate buffer pH 7.5 with 0.05, 0.15 or 0.5 M NaCl; number of subunits printed for 0.5 M NaCl
[2] = biological target: the molecule itself; assay: SEC; analytical gel filtration (TSK-GEL G4000SWXL, HPLC), 25°C, 0.5 mg/ml protein in 50 mM phosphate buffer pH 7.5, no NaCl; column calibrated with molecular weight standards

B1: Mycobacterium leprae HSP18 (natural protein, UniProt P12809 1-148, looked up)
chain: MLMRTDPFRELDRFAEQVLGTSARPAVMPMDAWREGEEFVVEFDLPGIKADSLDIDIERNVVTVRAERPGVDPDREMLAAERPRGVFNRQLVLGENLDTERILASYQEGVLKLSIPVAERAKPRKISVDRGNNGHQTINKTAHEIIDA
notes: wild-type small heat shock protein HSP18 (18 kDa antigen) of Mycobacterium leprae; Large homo-oligomer: 29 subunits without NaCl, approximately 12 subunits in 0.5 M NaCl (gel filtration); also called 18 kDa antigen
stoichiometry N [1]: ~12 subunits | stoichiometry N [2]: 29 subunits
